Assay results from paper PMC10619491, “SET7/9-mediated methylation affects oncogenic functions of histone demethylase JMJD2A” (JCI Insight, 2023).
Blank lines part the entries; values can stand above or below the binder they belong to. Ends that are not written are not given here.

Molecular target: T1, GST–ETV1(249–477) fusion protein (UniProt P50549 249-477)
T1 construct: ETV1, C-terminal half, residues 249-477; In the MST it was labelled through an anti-GST mouse mAb coupled to Alexa Fluor 647; also called fusion between GST and the C-terminal half of ETV1 (aa 249–477); source: E. coli, purified
T1 sequence (looked up): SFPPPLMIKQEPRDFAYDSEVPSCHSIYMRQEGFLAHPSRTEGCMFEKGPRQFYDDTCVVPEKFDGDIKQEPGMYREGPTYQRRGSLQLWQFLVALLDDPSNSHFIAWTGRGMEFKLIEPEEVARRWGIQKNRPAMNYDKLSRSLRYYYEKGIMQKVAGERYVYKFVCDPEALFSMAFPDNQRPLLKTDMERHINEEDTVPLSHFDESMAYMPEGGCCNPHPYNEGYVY
Test: MST; Monolith NT.115; 15 serial dilutions of peptide (starting concentration 50 μM) against 300 nM GST–ETV1(249–477) with 20 nM anti-GST mouse mAb coupled to Alexa Fluor 647; PBS with 0.05% Tween-20
Settings: both partners purified

Kd: 25.4 µM
B1: unmethylated (WT) peptide spanning JMJD2A aa 490–522 (peptide, UniProt O75164 490-522, looked up)
peptide: VNPASVGGRLVFSGSKKKSSSSLGSGSSRDSIS-NH2
notes: JMJD2A/KDM4A, human, residues 490-522; also called JMJD2A aa 490–522 peptide; source: synthetic peptide (GenScript)

Kd: 8.7 µM
B2: triple methylated (on K505, K506, and K507; 3xme) peptide spanning JMJD2A aa 490–522 (peptide, UniProt O75164 490-522, looked up)
peptide: VNPASVGGRLVFSGSK(Me)K(Me)K(Me)SSSSLGSGSSRDSIS-NH2
modifications: N-terminus assumed
SMILES: CC[C@H](C)[C@H](NC(=O)[C@H](CO)NC(=O)[C@H](CC(=O)O)NC(=O)[C@H](CCCNC(=N)N)NC(=O)[C@H](CO)NC(=O)[C@H](CO)NC(=O)CNC(=O)[C@H](CO)NC(=O)CNC(=O)[C@H](CC(C)C)NC(=O)[C@H](CO)NC(=O)[C@H](CO)NC(=O)[C@H](CO)NC(=O)[C@H](CO)NC(=O)[C@H](CCCCNC)NC(=O)[C@H](CCCCNC)NC(=O)[C@H](CCCCNC)NC(=O)[C@H](CO)NC(=O)CNC(=O)[C@H](CO)NC(=O)[C@H](Cc1ccccc1)NC(=O)[C@@H](NC(=O)[C@H](CC(C)C)NC(=O)[C@H](CCCNC(=N)N)NC(=O)CNC(=O)CNC(=O)[C@@H](NC(=O)[C@H](CO)NC(=O)[C@H](C)NC(=O)[C@@H]1CCCN1C(=O)[C@H](CC(N)=O)NC(=O)[C@@H](N)C(C)C)C(C)C)C(C)C)C(=O)N[C@@H](CO)C(N)=O
notes: JMJD2A/KDM4A, human, residues 490-522; source: synthetic peptide (GenScript)
